# Ends that are not written are not given here. HPMA copolymer = HPMA copolymer made by RAFT copolymerization of HPMA with N-(3-aminopropyl)methacrylamide (APMA), bearing maleimide groups for grafting
# Assay: Pharmacokinetics at each cycle of a four-round treatment regimen
# Format: in vivo, female mice
# Parameters: PK curves: unit not given here
# Details: for AUC0-t / AUC0-∞ / MRT0-t / MRT0-∞ / T1/2z: same
substance,measurement,setting,value
"P-CM2-Cy3: Cy3-labeled P-CM2 (C(HPMA copolymer)YGGEVSALEKEVSALEKKNSALEKEVSALEKEVSALEK; also: Cy3 label on conjugate, position not given here)",PK curves,"Round 3, Time 0.041667 Day, replicate 1",171.135
same,PK curves,"Round 3, Time 0.041667 Day, replicate 2",180.496
same,PK curves,"Round 3, Time 0.041667 Day, replicate 3",188.668
same,PK curves,"Round 3, Time 0.041667 Day, replicate 4",205.584
same,PK curves,"Round 3, Time 0.041667 Day, replicate 5",224.681
same,PK curves,"Round 3, Time 0.083333 Day, replicate 1",156.708
same,PK curves,"Round 3, Time 0.083333 Day, replicate 2",161.465
same,PK curves,"Round 3, Time 0.083333 Day, replicate 3",162.063
same,PK curves,"Round 3, Time 0.083333 Day, replicate 4",168.293
same,PK curves,"Round 3, Time 0.083333 Day, replicate 5",190.32
same,PK curves,"Round 3, Time 0.166667 Day, replicate 1",118.152
same,PK curves,"Round 3, Time 0.166667 Day, replicate 2",137.258
same,PK curves,"Round 3, Time 0.166667 Day, replicate 3",138.998
same,PK curves,"Round 3, Time 0.166667 Day, replicate 4",139.637
same,PK curves,"Round 3, Time 0.166667 Day, replicate 5",146.663
same,PK curves,"Round 3, Time 0.25 Day, replicate 1",101.928
same,PK curves,"Round 3, Time 0.25 Day, replicate 2",105.033
same,PK curves,"Round 3, Time 0.25 Day, replicate 3",108.293
same,PK curves,"Round 3, Time 0.25 Day, replicate 4",115.298
same,PK curves,"Round 3, Time 0.25 Day, replicate 5",119.681
same,PK curves,"Round 3, Time 0.333333 Day, replicate 1",71.2229
same,PK curves,"Round 3, Time 0.333333 Day, replicate 2",72.9543
same,PK curves,"Round 3, Time 0.333333 Day, replicate 3",93.0071
same,PK curves,"Round 3, Time 0.333333 Day, replicate 4",101.069
same,PK curves,"Round 3, Time 0.333333 Day, replicate 5",102.809
same,PK curves,"Round 3, Time 0.5 Day, replicate 1",54.5332
same,PK curves,"Round 3, Time 0.5 Day, replicate 2",55.1656
same,PK curves,"Round 3, Time 0.5 Day, replicate 3",58.857
same,PK curves,"Round 3, Time 0.5 Day, replicate 4",63.5997
same,PK curves,"Round 3, Time 0.5 Day, replicate 5",67.2877
same,PK curves,"Round 3, Time 1 Day, replicate 1",18.8846
same,PK curves,"Round 3, Time 1 Day, replicate 2",19.9794
same,PK curves,"Round 3, Time 1 Day, replicate 3",34.0857
same,PK curves,"Round 3, Time 1 Day, replicate 4",37.3031
same,PK curves,"Round 3, Time 1 Day, replicate 5",39.9731
same,PK curves,"Round 3, Time 2 Day, replicate 1",13.6659
same,PK curves,"Round 3, Time 2 Day, replicate 2",15.2182
same,PK curves,"Round 3, Time 2 Day, replicate 3",16.959
same,PK curves,"Round 3, Time 2 Day, replicate 4",18.4095
same,PK curves,"Round 3, Time 2 Day, replicate 5",23.265
same,PK curves,"Round 3, Time 3 Day, replicate 1",5.299
same,PK curves,"Round 3, Time 3 Day, replicate 2",5.6755
same,PK curves,"Round 3, Time 3 Day, replicate 3",6.127
same,PK curves,"Round 3, Time 3 Day, replicate 4",11.4512
same,PK curves,"Round 3, Time 3 Day, replicate 5",11.8082
same,AUC0-t,Round 3,2847.475 ± 463.394 ng·h/mL
same,AUC0-∞,Round 3,3060.689 ± 565.511 ng·h/mL
same,MRT0-t,Round 3,17.779 ± 1.27 h
same,MRT0-∞,Round 3,23.927 ± 3.854 h
same,T1/2z,Round 3,19.193 ± 3.042 h
same,PK curves,"Round 4, Time 0.041667 Day, replicate 1",230.725
same,PK curves,"Round 4, Time 0.041667 Day, replicate 2",194.218
same,PK curves,"Round 4, Time 0.041667 Day, replicate 3",209.902
same,PK curves,"Round 4, Time 0.041667 Day, replicate 4",229.24
same,PK curves,"Round 4, Time 0.041667 Day, replicate 5",229.61
same,PK curves,"Round 4, Time 0.083333 Day, replicate 1",173.583
same,PK curves,"Round 4, Time 0.083333 Day, replicate 2",157.544
same,PK curves,"Round 4, Time 0.083333 Day, replicate 3",163.249
same,PK curves,"Round 4, Time 0.083333 Day, replicate 4",167.214
same,PK curves,"Round 4, Time 0.083333 Day, replicate 5",205.861
same,PK curves,"Round 4, Time 0.166667 Day, replicate 1",141.479
same,PK curves,"Round 4, Time 0.166667 Day, replicate 2",127.721
same,PK curves,"Round 4, Time 0.166667 Day, replicate 3",129.082
same,PK curves,"Round 4, Time 0.166667 Day, replicate 4",138.936
same,PK curves,"Round 4, Time 0.166667 Day, replicate 5",150.211
same,PK curves,"Round 4, Time 0.25 Day, replicate 1",117.333
same,PK curves,"Round 4, Time 0.25 Day, replicate 2",116.423
same,PK curves,"Round 4, Time 0.25 Day, replicate 3",120.111
same,PK curves,"Round 4, Time 0.25 Day, replicate 4",124.299
same,PK curves,"Round 4, Time 0.25 Day, replicate 5",125.432
same,PK curves,"Round 4, Time 0.333333 Day, replicate 1",69.1458
same,PK curves,"Round 4, Time 0.333333 Day, replicate 2",73.8277
same,PK curves,"Round 4, Time 0.333333 Day, replicate 3",84.2185
same,PK curves,"Round 4, Time 0.333333 Day, replicate 4",100.254
same,PK curves,"Round 4, Time 0.333333 Day, replicate 5",118.152
same,PK curves,"Round 4, Time 0.5 Day, replicate 1",43.1042
same,PK curves,"Round 4, Time 0.5 Day, replicate 2",47.0545
same,PK curves,"Round 4, Time 0.5 Day, replicate 3",50.0192
same,PK curves,"Round 4, Time 0.5 Day, replicate 4",54.418
same,PK curves,"Round 4, Time 0.5 Day, replicate 5",70.7604
same,PK curves,"Round 4, Time 1 Day, replicate 1",21.2271
same,PK curves,"Round 4, Time 1 Day, replicate 2",23.1099
same,PK curves,"Round 4, Time 1 Day, replicate 3",27.0861
same,PK curves,"Round 4, Time 1 Day, replicate 4",30.0884
same,PK curves,"Round 4, Time 1 Day, replicate 5",41.0104
same,PK curves,"Round 4, Time 2 Day, replicate 1",4.911
same,PK curves,"Round 4, Time 2 Day, replicate 2",16.8258
same,PK curves,"Round 4, Time 2 Day, replicate 3",17.3047
same,PK curves,"Round 4, Time 2 Day, replicate 4",21.1219
same,PK curves,"Round 4, Time 2 Day, replicate 5",21.2086
same,PK curves,"Round 4, Time 3 Day, replicate 1",3.457
same,PK curves,"Round 4, Time 3 Day, replicate 2",6.287
same,PK curves,"Round 4, Time 3 Day, replicate 3",7.344
same,PK curves,"Round 4, Time 3 Day, replicate 4",8.892
same,PK curves,"Round 4, Time 3 Day, replicate 5",12.3135
same,AUC0-t,Round 4,2805.642 ± 501.797 ng·h/mL
same,AUC0-∞,Round 4,3022.978 ± 666.243 ng·h/mL
same,MRT0-t,Round 4,16.883 ± 2.739 h
same,MRT0-∞,Round 4,22.801 ± 5.68 h
same,T1/2z,Round 4,18.712 ± 5.773 h
